This note sets out measurements from PMC5028754, “Structural studies of the yeast DNA damage-inducible protein Ddi1 reveal domain architecture of this eukaryotic protein family” (Scientific Reports, 2016).

In data set [1] the target is T1, bovine ubiquitin (bovine, UniProt P0CG53 1-76).
T1 construct: ubiquitin, bovine (cut product of the ubiquitin precursors); source: bought: Sigma, cat. no; U6253
Kind of data set: ITC; ubiquitin or K48-Ub2 injected from the syringe into the Ddi1 construct in the sample cell; 50 mM HEPES, pH 7.4, 150 mM NaCl, 25 °C; VP-ITC; one-site model varying N, Kd and ΔH; full-length Ddi1 with ubiquitin also fitted to a two-sites model with N fixed to 1.0. As to conditions: both partners purified. A general note: In ITC the heat of successive injections is recorded.

Data set [2] concerns the molecule itself. Kind of data set: crystal structure; Ddi1 RVP 185-325, 1.8 Å; crystallized in 0.1 M phosphate-citrate, pH 4.2, 0.4 M NaCl, 20% PEG 8000; two chains in the asymmetric unit.

B1: Ddi1 RVP-UBA (180-428) (domain or fragment, S. cerevisiae, UniProt P40087 180-428, looked up)
chain: QQAIDEQLRNAIEYTPEMFTQVPMLYINIEINNYPVKAFVDTGAQTTIMSTRLAKKTGLSRMIDKRFIGEARGVGTGKIIGRIHQAQVKIETQYIPCSFTVLDTDIDVLIGLDMLKRHLACVDLKENVLRIAEVETSFLSEAEIPKSFQEGLPAPTSVTTSSDKPLTPTKTSSTLPPQPGAVPALAPRTGMGPTPTGRSTAGATTATGRTFPEQTIKQLMDLGFPRDAVVKALKQTNGNAEFAASLLFQ
notes: Ddi1 of Saccharomyces cerevisiae, residues 180-428 (RVP to UBA, lacks the UBL), cloned into pET16b; Contains the RVP domain; also called RVP-UBA construct (without the UBL)
As a reminder, the Kd is a measure of binding affinity in units of concentration. The low end stands for a tighter complex, the high end for a looser complex. For the molecule B1, the Kd in data set [1] turned out to be 43 µM.

B2: Ddi1 UBL-RVP (1-325) (domain or fragment, S. cerevisiae, UniProt P40087 1-325, looked up)
chain: MDLTISNELTGEIYGPIEVSEDMALTDLIALLQADCGFDKTKHDLYYNMDILDSNRTQSLKELGLKTDDLLLIRGKISNSIQTDAATLSDEAFIEQFRQELLNNQMLRSQLILQIPGLNDLVNDPLLFRERLGPLILQRRYGGYNTAMNPFGIPQDEYTRLMANPDDPDNKKRIAELLDQQAIDEQLRNAIEYTPEMFTQVPMLYINIEINNYPVKAFVDTGAQTTIMSTRLAKKTGLSRMIDKRFIGEARGVGTGKIIGRIHQAQVKIETQYIPCSFTVLDTDIDVLIGLDMLKRHLACVDLKENVLRIAEVETSFLSEAEIPK
notes: Contains the RVP domain; also called UBL-RVP construct (without the UBA)
In data set [1], B2 came in with a Kd of 310 µM. Compared with the last molecule, the Kd is about 7.2-fold higher.

B3: full-length yeast Ddi1 (natural protein, S. cerevisiae, UniProt P40087 1-428, looked up)
chain: MDLTISNELTGEIYGPIEVSEDMALTDLIALLQADCGFDKTKHDLYYNMDILDSNRTQSLKELGLKTDDLLLIRGKISNSIQTDAATLSDEAFIEQFRQELLNNQMLRSQLILQIPGLNDLVNDPLLFRERLGPLILQRRYGGYNTAMNPFGIPQDEYTRLMANPDDPDNKKRIAELLDQQAIDEQLRNAIEYTPEMFTQVPMLYINIEINNYPVKAFVDTGAQTTIMSTRLAKKTGLSRMIDKRFIGEARGVGTGKIIGRIHQAQVKIETQYIPCSFTVLDTDIDVLIGLDMLKRHLACVDLKENVLRIAEVETSFLSEAEIPKSFQEGLPAPTSVTTSSDKPLTPTKTSSTLPPQPGAVPALAPRTGMGPTPTGRSTAGATTATGRTFPEQTIKQLMDLGFPRDAVVKALKQTNGNAEFAASLLFQ
notes: Ddi1 of Saccharomyces cerevisiae, full length, cloned into pET16b; ITC concentration calculated to monomer; also called Ddi1 FL; DNA damage-inducible protein Ddi1
In data set [1], B3 returned a Kd of 320 µM.

B4: Ddi1 RVP (residues 185-325) (domain or fragment, S. cerevisiae, UniProt P40087 185-325, looked up)
chain: EQLRNAIEYTPEMFTQVPMLYINIEINNYPVKAFVDTGAQTTIMSTRLAKKTGLSRMIDKRFIGEARGVGTGKIIGRIHQAQVKIETQYIPCSFTVLDTDIDVLIGLDMLKRHLACVDLKENVLRIAEVETSFLSEAEIPK
notes: MALDI-TOF 16,320 Da (predicted 16,313 Da); also called RVP domain; Ddi1 retroviral protease-like domain; source: E. coli BL21(DE3), purified (glutathione-sepharose, 3C cleavage, gel filtration); not shown: GST, N-terminal, cleaved
For orientation: stoichiometry N means a count of units in the complex or per binding partner. As to B4, in data set [2], the “stoichiometry N” value stood at 2.
